Test results taken from the supplement of paper PMC9170038.

System: MS2 coat protein
Assay: apparent KD of MS2 coat protein, switch ON state; designed switch direction (-1 OFF switch, 1 ON switch): 1; higher = weaker reporter binding
Details: FMN input: 0 or 200 uM; Eterna round: R93 (includes R88 designs)
In short: (§1)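 With or without constant ligand, designed RNA switches in 100 mM Tris-HCl pH 7.5, 80 mM KCl and 4 mM MgCl2 were titrated with SNAP-549-labelled MS2 coat protein. Concentrations went up in twofold steps from 0.7 or 1.5 nM to 3 µM. The switches had been transcribed on-chip from Illumina sequencing clusters, and apparent KD is the per-design median of normalised cluster binding-curve fits.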

Sequence	apparent KD of MS2 coat protein [nM]
AAAAAAUAAAAAAAGGAUAUAAUCGAUGGAACAUGAGGAUCACCCAUGUGACAUCGAAAAAUAAAAAAGAAGGAAAAAUAAAAAA [SS2: MS2 24]	17.6
AAAAAAGAUCGAGAGGAUAUCCGAGUGGUAACAUGAGGAUCACCCAUGUGAAGAAAGGAACAUGAGGAGAAGGCUCGAUCAAAAA [viburnum 4]	7.85
AAACUGGAGGACAAGGAUAUGUGCUCUACGACAUGAGGAUCACCCAUGUGAGACGUAGUAGUGAAACAGAAGGUGUCCUAUUGUU [Qulece]	11.6
GAAAAACAUGAGGAUCACCCAUGUAGAGAUAUGGGAGGAUAUACGAAGACGAAAGACGAAGUAGAAGGCCUAAAAG [Garnet 58]	35.1
AAAAAAAAAAGGCAGGAUAUUCAAAAAAAAACAUGAGGAUCACCCAUGUAAAAAAAAAAAAAAUGGAAGAAGGGCCAAAAAAAAAA [Fiskers Same State 2 D1]	18.8

System: MS2 coat protein
Assay: apparent KD of MS2 coat protein, switch OFF state (with FMN for OFF switches, without FMN for ON switches); designed switch direction (-1 OFF switch, 1 ON switch): 1; higher = weaker reporter binding
Details: FMN input: 0 or 200 uM; Eterna round: R93 (includes R88 designs)
In short: as §1

Sequence	apparent KD of MS2 coat protein [nM]
AUUACAUCUAGUUAGGAUAUCAGAUGUAAGACAUGAGGAUCACCCAUGUCCUAAGAAUAGGUAACUGAGAAGGAACAGGGAGUAU [JR_SS002_Sub418]	26.8
GACCGACAUGAGGAUCACCCAUGUCGGAAAAGGCAAGGAUAUGGGCGGUACCAAUUUCGGUCAGAAGGUGCAAAAG [Aatisri]	14.6
AAAAAACAUGAGGAUCACCCAUGUGAGAACACGGGAGGAUAUACGAAGACGAAAGUCGAAGUAGAAGGCCUAAAAA [Garnet 82]	75.6
AGGAAACAUGAGGAUCACCCAUGUAAGAUAAACACAGGAUAUGCGAAAAGAAACAAAGAAGCAGAAGGGUGAAGAA [75%, Ex5 sub 1, 1]	35.6
AACAUACAUGAGGAUCACCCAUGUUAGGUGGGACUAGGAUAUCAAUCGAAAGUGUUAUAAUGAGAAGGAGUAUAAA [JR_SS001_Sub015]	209
AAAAAAAAGCCCAAGGAUAUCCGGAUGAAGACAUGAGGAUCACCCAUGUGAAAAAAAAAAUAUGAGGAGAAGGUGGGAAAAAAAAA [Esgemaedso]	76.6
AAUAAAAAUAGUUAGGAUAUGAGAAUUAAGACAUGAGGAUCACCCAUGUAAUUAAAACAAGUAAAUCAGAAGGGACAGGGUGAAA [JR_SS002_Sub204]	46
GGAGAACAUGAGGAUCACCCAUGUCGGAGAAGGCGAGGAUAUCGAAGGAGGAAGGAAGGACGAGAAGGCGCGGCAG [salish99-SS1-01]	21.4
AAAACACAUGAGGAUCACCCAUGUAAAAACAUGAGAGGAUAUGCAUGGAAAACAUGCUAUGCAGAAGGCUCAUGUG [SS1 - 3]	34.6
AGAAAUAAAAGAGAGGAUAUCUUAAAGAAAACAUGAGGAUCACCCAUGUAAAAGAAAAUAAAAUGGGAGAAGGCUCAUAAUAAAG [JL Skelter Mod 4 In the Red]	109
GAGGACCUAGGAUAGGAUAUAUGAAUAAUUACAUGAGGAUCACCCAUGUCCAUUUAUAUGGGAACAUAGAAGGGUUCUGGUUAUC [SameState2 Malc#37]	60.6
AAGAAACAUGAGGAUCACCCAUGUGAGAAUAACACAGGAUAUGCAAAAGAAAGAAAGAAAGCAGAAGGGUGAAGAA [Mat - Same State 1 - Tesla mod - 53]	59.1
AAUAUAUUAAGUGAGGAUAUCGAGGAAAAAACAUGAGGAUCACCCAUGUGGGAAACAUGGUAGGGUGAGAAGGUACUUAAUAUAU [Samwise Clockwise 23 - Jieux - Same State 2]	220
AGAAAACAUGAGGAUCACCCAUGUAGAAAUAUGGGAGGAUAUACAAAGACGAAAGUCGAAGUAGAAGGCCUAAAGA [Mat - Same State 1 - Meechl mod - D123]	58.7
CGGAGACAUGAGGAUCACCCAUGUGAGAAGAGGCGAGGAUAUCGAAAGAAAGAAGAGAAACGAGAAGGCGCGAGUG [salish99-SS1-074]	32.9
AAUGAACAUGAGGAUCACCCAUGUUUUAAUAGUUGAGGAUAUAUGGGUGAAAAUAGCACAGUAGAAGGCGAGUGUA [SameState1 Malc#16]	133
GAAAAACAUGAGGAUCACCCAUGUAGAAAUAUGGAAGGAUAUACAAAGACGAAACUGAAAGUAGAAGGUCUAAAAG [Garnet 95]	22.1
CGCCAAUUGGCACAGGAUAUGAGCAUGCUCACAUGAGGAUCACCCAUGUGAUUACCAACGCAAAAUCAGAAGGGUGCCCUCGUCA [Beanza]	92.6
AAUAGGAAGAGAGAGGAUAUCCAAAGGAAAACAUGAGGAUCACCCAUGUAAAAGGUAGGAAAUUGGGAGAAGGCUCAAGAGAGAG [salish99-ss2-073]	39.9
AACACGCGGGCGCAGGAUAUGUCGCUGGUGACAUGAGGAUCACCCAUGUAUACCAUUGCGGUUGAGCAGAAGGGUGAGAUGCGUG [Beisesanxe]	59.5
AAGAAAGUUUACGAGGAUAUGUUCCGCAGAACAUGAGGAUCACCCAUGUGAACAAGAAAGGCGACGCAGAAGGCGUGAGCAAAGA [Anvedi]	105
AAAAAAAAAAGUGAGGAUAUGUGAUCGGUGACAUGAGGAUCACCCAUGUGAGGCCUUCGGGCCGGACAGAAGGCACAAAAAAAAA [Same State 2-X]	257
AAAAAAUAAAAAAAGGAUAUAAUCGAUGGAACAUGAGGAUCACCCAUGUGACAUCGAAAAAUAAAAAAGAAGGAAAAAUAAAAAA [SS2: MS2 24]	11.2
AAAAAAGAUCGAGAGGAUAUCCGAGUGGUAACAUGAGGAUCACCCAUGUGAAGAAAGGAACAUGAGGAGAAGGCUCGAUCAAAAA [viburnum 4]	18.7
AAACUGGAGGACAAGGAUAUGUGCUCUACGACAUGAGGAUCACCCAUGUGAGACGUAGUAGUGAAACAGAAGGUGUCCUAUUGUU [Qulece]	27.4
GAAAAACAUGAGGAUCACCCAUGUAGAGAUAUGGGAGGAUAUACGAAGACGAAAGACGAAGUAGAAGGCCUAAAAG [Garnet 58]	180
AAAAAAAAAAGGCAGGAUAUUCAAAAAAAAACAUGAGGAUCACCCAUGUAAAAAAAAAAAAAAUGGAAGAAGGGCCAAAAAAAAAA [Fiskers Same State 2 D1]	28
